Laboratory results from US11497796B2, “Agents directed against a cis RGMa/neogenin interaction or lipid rafts and use of the same in methods of treatment” (UNIVERSITY HEALTH NETWORK, priority 2013, dated 2022).

T1: 4Ig-domain of Neogenin (His-4Ig) (Gallus gallus, UniProt Q90610)
T1 construct: 6-His (N); myc (C); 6-His (C); made in house
T1 sequence (Q90610 1-383): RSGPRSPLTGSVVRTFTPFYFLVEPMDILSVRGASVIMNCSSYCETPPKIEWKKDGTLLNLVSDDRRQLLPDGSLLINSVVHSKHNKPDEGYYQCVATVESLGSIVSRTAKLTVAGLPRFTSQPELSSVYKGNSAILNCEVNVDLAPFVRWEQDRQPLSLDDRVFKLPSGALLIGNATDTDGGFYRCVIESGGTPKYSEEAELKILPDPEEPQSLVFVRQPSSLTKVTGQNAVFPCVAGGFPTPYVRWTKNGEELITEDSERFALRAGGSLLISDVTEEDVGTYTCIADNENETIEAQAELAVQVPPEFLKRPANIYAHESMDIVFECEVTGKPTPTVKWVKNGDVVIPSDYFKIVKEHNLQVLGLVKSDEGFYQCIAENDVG

B1: 4Ig: four immunoglobulin-like domains of Neogenin, amino acids 1 to 383 of Accession No. AAC59662 (SEQ ID NO:1) (protein, listed as Gallus gallus)
chain: RSGPRSPLTGSVVRTFTPFYFLVEPMDILSVRGASVIMNCSSYCETPPKIEWKKDGTLLNLVSDDRRQLLPDGSLLINSVVHSKHNKPDEGYYQCVATVESLGSIVSRTAKLTVAGLPRFTSQPELSSVYKGNSAILNCEVNVDLAPFVRWEQDRQPLSLDDRVFKLPSGALLIGNATDTDGGFYRCVIESGGTPKYSEEAELKILPDPEEPQSLVFVRQPSSLTKVTGQNAVFPCVAGGFPTPYVRWTKNGEELITEDSERFALRAGGSLLISDVTEEDVGTYTCIADNENETIEAQAELAVQVPPEFLKRPANIYAHESMDIVFECEVTGKPTPTVKWVKNGDVVIPSDYFKIVKEHNLQVLGLVKSDEGFYQCIAENDVGNAQAGAQLIILDLDVAIPTLPPTSLTSATNDHLAPATTGPLPTAPRDVVATLVSTRFIRLTWRTPVSDPQGDNLTYSIFYTKEGINRERVENTSRPGETQVMIQNLMPETVYVFRVVAQNKHGHGESSAPLKVATQPEVQLPGPAPNIRAYAGSPTSVTVTWETPLSGNGEIQNYKLYYMEKGQDSEQDVDVAGLSYTITGLKKYTEYSFRVVAYNKHGPGVSTQDVVVRTLSDVPSAAPQNLTLEARNSKSIMLHWQPPPAGTHSGQITGYKIRYRKVSRKSDVTESVGGTQLFQLIEGLERGTEYNFRIAAMTVNGTGPATDWVSAETFESDLDESRVPEVPSSLHVRPLVTSIVVSWTPPENQNIVVRGYAIGYGIGSPHAQTIKVDYKQRYYTIENLDPSSHYVITLKAFNNVGEGIPLYESAVTRPHSDTSEVDLFVINAPYTPVPDPSPMMPPVGVQASILSHDTIRITWADNSLPKNQKITDARYYTVRWKTNIPANTKYKTANATTLSYLVTGLKPNTLYEFSVMVTKGRRSSTWSMTAHGTTFELVPTSPPKDVTVVSKEGKPRTIIVNWQPPSEANGKITGYIIYYSTDVNAEIHDWVIEPVVGNRLTHQIQELTLDTPYYFKIQARNSKGMGPMSEAVQFRTPKAESSDKMPNDQASGSAGKGSRPVDVGPDYKPPLSGSNSPHGSPTSPLDSNMLLVIIVSVGVITIVIVVIVAVFCTRRTTSHQKKKRAACKSVNGSHKYKGNSKDVKPPDLWIHHERLELKPIDKSPDPNPIMTDTPIPRNSQDITPVDNSMDSNIHQRRNSYRGHESEDSMSTLAGRRGMRPKMMMPFDSQPPQPVISAHPIHSLDNPHHHFHSGSLASPTRSYLHHQVSPWPVGTSMSHSDRANSTESVRNTPSSDTMPASSSQPCADHQDPDSSSGAYLGSAQEEDAAQSLPTAHVRPSHPLKSFAVPAVPAAGSAYDPTLPSTPLLTQQAPSHPVHSVKTASIGTLGRTRPPMPVVVPSAPDVQETTRMLEDSESSYEPDELTKEMAHLEGLMKDLNAITTA
modifications: Neogenin - Accession No. AAC59662

What was measured:
[1] = molecular target: T1, 4Ig-domain of Neogenin (His-4Ig); experiment: Pull-down assay with peptide-coated beads; format: binding; conditions: Western blot with anti-His
Method: (A) RGMa proteins were incubated on plates coated with 4Ig- or 6FNIII-AP. One C- and one N-RGMa domain (N-RGMa^77-113) interacted with 6FNIII. One N-RGMa domain (N-Raft) interacted with 4Ig. (B) Supernatants (Sup) from cells expressing His-6FNIII or His-4Ig, were pulled down (IP) with beads coated with N-Raft, N-RGMa^50-99, and N-inh. Western Blot was then performed with an anti-His antibody to reveal whether or not His-6FNIII or His-4Ig interacted with the coated beads. […] Data are average±SEM (n=3 independent experiments), *p<0.0001. Scale bar, 100 μm. (E) Chick brains were injected with control peptide (Ctrl; N-RGMa^50-99), 4Ig, N-Raft, or Noggin 1 day before preparing membrane fractionations. In control experiments, Neogenin localized to the Flotillin/RGMa-containing lipid raft fraction (as shown in solid lined boxes). 4Ig, N-Raft, or Noggin shifted Neogenin to heavy fractions.
Proteins were coupled to activated CNBr Sepharose beads (Pharmacia) according to supplier instructions. Supernatants from transfected cells were added to coupled beads for 2 h at room temperature (RT). Beads were then washed 6× with PBS plus 0.02% Tween 20, and SDS loading buffer was added. Samples were boiled and subjected to Western blotting.

EAE paralysis = experiment: EAE mouse model of multiple sclerosis; format: in vivo; conditions: 3 μg IV at days 3, 6, 9; after 17 days; control approaching 5
Method: Specifically, whether or not 4Ig reduced paralysis in the EAE model was tested. To induce EAE, C57BL6/J mice were injected with an emulsion of MOGp35-55 peptide (50 μg, day 0) mixed with complete Freund's adjuvant (CFA). On day 2, the animals also received 400 ng of pertussis toxin (PTX) intraperitoneally in order to produce severe and reliable EAE and then were examined for clinical signs in over a 17 day period (FIG. 28).
At days 3, 6, and 9 post-EAE induction, animals were treated with either 3 μg of 4Ig in PBS (IV injection) or PBS (Control).

Row | Molecule | pull-down of 4Ig-domain by peptide-coated beads [1] | clinical score (EAE paralysis)
1 | N-Raft: peptide spanning amino acids 28-73 of RGMa (SEQ ID NO:2) (SPCKILKCNSEFWAATSGSHHLGAEETPEFCTALRAYAHCTRRTAR; N-Raft - amino acids 28-73 of RGMa) | pulled down | –
2 | B1 | – | 1.4
